Reference: the supplement of paper PMC9732359
± gives the uncertainty stated by the source.

Experiment: protein stability index of a GFP-peptide fusion (yeast GPS) (PSI 1-4); higher = more stable; sorted into four equal gates, so the index is relative within each strain
Summary of the method: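 Plasmids in a pooled yeast library fused tiled 17-residue yeast protein peptides downstream of GFP and also expressed Cherry. Mid-log cultures grown without leucine were sorted into four equal gates by GFP/Cherry fluorescence ratio. Each gate's plasmids were PCR-amplified and Illumina-sequenced, and reads were matched to strains by barcodes. The protein stability index is derived by multiplying each gate's read frequency by its gate number and summing the results.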

Sequence | protein stability index (doa10∆) | protein stability index (pdr5∆) | protein stability index (ubr1∆) | protein stability index (san1∆)
TRKAARPQKLRASLVPG [RPL6A] | 1.47 ± 0.21 | 1.5 ± 0.12 | 2 ± 0.12 | 
ARDAPTKISTLAVKVHG [QCR2] | 1.4 ± 0.11 | 2.09 ± 0.14 | 1.09 ± 0.045 | 1.38 ± 0.14
CGDSIICNTLNIAKDLK [SMC1] | 1.78 ± 0.079 | 1.66 ± 0.067 | 2.12 ± 0.075 | 1.42 ± 0.12
QGAKTYLERTLDTFIKI [PRE5] | 3.03 ± 0.081 | 3.18 ± 0.068 | 3.21 ± 0.058 | 2.81 ± 0.067
SQSRSAKAGLTFPVGRV [HTA1] | 2.8 ± 0.071 | 2.85 ± 0.08 | 3.07 ± 0.035 | 2.92 ± 0.042
GAINVANCQRQLTEFWT [NNF1] | 3.2 ± 0.16 | 2.76 ± 0.13 |  | 2.71 ± 0.21
MFQSQSQLQPQPQPQPQ [YDL088C/ASM4] | 2.48 ± 0.056 | 2.49 ± 0.048 | 2.99 ± 0.04 | 2.29 ± 0.068
RKRKCGHTNQLRPKKKL [RPL40A] | 2.84 ± 0.035 | 2.95 ± 0.032 | 3.033 ± 0.026 | 3.017 ± 0.024
PMETLLSGLSADKPFTR [YML031W/NDC1] | 2.91 ± 0.05 | 3.04 ± 0.05 | 2.85 ± 0.034 | 2.94 ± 0.037
DRKNRAPPQRPRFNRDN [RPS26B] | 1.87 ± 0.2 | 1.4 ± 0.15 | 3.04 ± 0.16 | 
EIIFLGAQIVSKQIFTH [ARP9] | 1.22 ± 0.1 | 1.33 ± 0.075 | 1.25 ± 0.036 | 1.14 ± 0.14
KSLGVKSLGGGAALKDI [FAS2] | 3 ± 0.051 | 2.25 ± 0.049 | 2.86 ± 0.057 | 2.41 ± 0.048
KDAISFIKEIHKSIELI [YCS4] | 2 ± 0.066 | 2.81 ± 0.065 | 2.69 ± 0.037 | 3.17 ± 0.055
MRSTSILTEHLGYPPIS [MTW1] | 2.9 ± 0.076 | 2.74 ± 0.065 | 3.06 ± 0.091 | 2.87 ± 0.062
AFFHLFASLRVLPDADV [YJL039C/NUP192] | 1.17 ± 0.08 | 1.24 ± 0.078 | 1.97 ± 0.066 | 1.36 ± 0.14
QALEKIGIVEISPKGGR [RPS19A] | 2.46 ± 0.15 | 2.74 ± 0.18 | 2.56 ± 0.15 | 2.2 ± 0.13
QFSESTHNDIDSTAVAL [YJL039C/NUP192] | 2.76 ± 0.098 | 2.5 ± 0.2 | 3.16 ± 0.071 | 2.71 ± 0.087
NNTNNNNTNTGASGVDD [SWI1] | 2.75 ± 0.073 | 2.95 ± 0.065 | 3.3 ± 0.048 | 3.05 ± 0.072
ASITGTGSNDRCIGDSD [YMR129W/POM152] | 3.11 ± 0.083 | 2.78 ± 0.12 | 2.88 ± 0.1 | 2.35 ± 0.11
TSNWEIYKPLLFEIVSN [SRB8] | 1.59 ± 0.062 | 2.05 ± 0.066 | 1.23 ± 0.08 | 2.11 ± 0.14
SVNPAMLPGSSNGGGKV [RPO31] | 2.98 ± 0.071 | 3.36 ± 0.12 | 3.08 ± 0.06 | 3.07 ± 0.08
TDLRFQSSAIGALQESV [HHT1] | 1.32 ± 0.13 | 1.41 ± 0.13 | 1.32 ± 0.23 | 1.32 ± 0.17
QFIKSNFEKILLTCYEL [SRB8] |  | 3 ± 0.23 |  | 
EDGRTLSDYNIQKESTL [RPS31] | 2.92 ± 0.081 | 3.02 ± 0.066 | 3.01 ± 0.09 | 3.05 ± 0.065
NRGNKKRHRSSYYDNDL [YML031W/NDC1] | 3.02 ± 0.13 | 3.29 ± 0.095 | 3 ± 0.11 | 3.24 ± 0.072

Sequence | protein stability index (doa10∆) | protein stability index (pdr5∆) | protein stability index (ubr1∆) | protein stability index (san1∆)
GTNNARLAQLLRQLASY [RPN1] | 3.17 ± 0.092 | 3.09 ± 0.083 | 3.14 ± 0.096 | 3.21 ± 0.097
IQPTAKVVYIQRRSWRQ [DIS3] | 1.52 ± 0.1 | 1.48 ± 0.072 | 1.16 ± 0.12 | 1.31 ± 0.13
KFQLQNQLEDFILELEH [YIL149C/MLP2] | 2.72 ± 0.081 | 1.95 ± 0.099 | 1.91 ± 0.086 | 2.11 ± 0.11
FFNGKALNNAIPGGPKF [PRP8] | 3.29 ± 0.13 | 3.02 ± 0.16 | 2.94 ± 0.1 | 2.87 ± 0.17
VNDVEELGEIIDEDIGN [RMP1] | 3.41 ± 0.15 |  | 3.19 ± 0.28 | 2.98 ± 0.2
KARSPGIAKPNAIQTEV [SIR4] | 3.36 ± 0.067 | 3.35 ± 0.092 | 3.22 ± 0.066 | 3.18 ± 0.075
TELMNRSPLVTPMDESS [SRP72] | 2.52 ± 0.071 | 2.58 ± 0.07 | 2.59 ± 0.062 | 3.03 ± 0.076
PKNLSTPSTSSNGEFIP [CSE2] | 2.83 ± 0.049 | 2.87 ± 0.045 | 2.93 ± 0.043 | 2.79 ± 0.039
NAEAKGLDATKLYVSHI [RPL17A] | 3.23 ± 0.16 | 3.13 ± 0.092 | 3.03 ± 0.071 | 3.01 ± 0.05
KSFTNDKIPLNYAMTRN [SRB5] | 2.8 ± 0.13 | 2.55 ± 0.1 | 2.67 ± 0.069 | 2.45 ± 0.06
VQGSTLAQLTSKLIPEV [RPS1A] | 2.79 ± 0.061 | 2.96 ± 0.063 | 2.76 ± 0.045 | 3.01 ± 0.051
FTNRSTMMANFEEWIKM [BRN1] | 2.12 ± 0.18 | 2.31 ± 0.19 | 2.65 ± 0.054 | 2.32 ± 0.1
IRKYGLNICRQCFREKA [RPS29A] | 1.59 ± 0.067 | 1.67 ± 0.045 | 1.73 ± 0.065 | 1.32 ± 0.11
DSLISGVKQKITIQLTR [BRR2] | 1.44 ± 0.12 | 1.74 ± 0.064 | 1.63 ± 0.073 | 2.66 ± 0.083
PDTSNEICDLAYQYVRA [SRB2] | 2.83 ± 0.046 | 2.93 ± 0.04 | 3 ± 0.041 | 2.95 ± 0.046
SYRNGMASYMLNSFAFE [YJR042W/NUP85] | 2.29 ± 0.09 | 2.45 ± 0.11 | 3.01 ± 0.084 | 2.6 ± 0.1
SYVETLDSMIELFKDYK [MED1] | 3.24 ± 0.085 | 3.22 ± 0.1 | 3.19 ± 0.054 | 3.34 ± 0.052
TSGKVELPKKLLNLPPF [SRB8] | 2.57 ± 0.27 | 3.1 ± 0.25 | 2.55 ± 0.14 | 2.67 ± 0.26
TGWISKCTAEGIKVSLL [RPC25] | 2.9 ± 0.14 | 3.12 ± 0.15 | 2.95 ± 0.15 | 2.66 ± 0.08
VPHSHPSDMVIPDHLAE [SNF12] | 2.04 ± 0.047 | 2.39 ± 0.047 | 2.31 ± 0.03 | 2.22 ± 0.068
YKDVSDLIRSESMLHLS [IRR1] | 2 ± 0.071 | 2.29 ± 0.054 | 2.01 ± 0.043 | 2.11 ± 0.093
NESEKDQWLEEYKKHFP [UBP6] | 3.31 ± 0.16 | 3.6 ± 0.19 | 3.32 ± 0.11 | 
FKGHSHIVQDCTLTADG [ASC1] | 1.67 ± 0.066 | 2.04 ± 0.087 | 1.55 ± 0.065 | 2.06 ± 0.16
NNRMGSYDCTGVNELAP [POP1] | 2.63 ± 0.099 | 2.42 ± 0.076 | 2.79 ± 0.059 | 2.74 ± 0.085
